From publication PMC6080891 (The Journal of General Physiology, 2018)

Biological target: the molecule itself
Assay: native gel or EMSA

B1: UNC-103::GFP (natural protein, C. elegans, UniProt G5EFJ9 1-829, looked up)
chain: MKTAVFGRDSGEPGSPCGAPPSLTFTPPATLVPPTHHHSRSTNRGGVSGTGGGGSGGLQGAPGAGGPRASHSSRRTSRLHNNVSALGVLSLGADVLPEYKLQPTRIHHCTIVHYSPFKAVWDWIILLLVIYTAVFTPYVAAFLLRELQDTAKKSRFTEPLEIVDLIVDIMFIVDIIINFRTTYVNENDEACQVVSDPGKIATHYFKGWFIIDMVAAVPFDLLLVSTNSDETTTLIGLLKTARLLRLVRVARKLDRYSEYGAAVLLLLMATFALIAHWLACIWYAIGSAELSHKEYTWLHQLSKQLAQPYTSTNGTIPTGGPTLKSRYVTSLYFTLSTITSIGFGNVSATTDSEKIFTIIMMILGSLMYASVFGNVSAIIQRLYSGTARYHTEMSRLREFIRFHQIPNPLRQRLEEYFQHAWSYTNGIDMNLVLKGFPDCLQADICLHLNRNLLSGCAAFAGSTPGCLRALSMRFRTTHSPPGDTLVHRGDILTGLYFIARGSVEILNDDNTVMGILGKDDIFGENPLLYDEVGKSSCNVRALTYCDLHKILRDDLLDVLDMYPEFAETFCKNLTITYNLRDDAQSLRKKFDRHKLLRMSSSMNKDRYTTPPDGDHGNAAVRRSAESVSRCDSNPIDRRQSAGSRSSSRCSPPHAALTATRSEATPLLRRSTNHHEEDDALFDDIRAFARGNTVTMSPTVAGNSVSPTTAIHNDGIHSQQLSDRSDDYEERRANMFGRRLESIESQMERMQNKFNSDMETLIKLVKEQSIIRNNGSSNEEPNARYRPNNYISSAIRLPNGGGGGVVDEMRVSRLSSHEPPTPTQETDTIL
stoichiometry N: 4
